Drawing on US9605283B2, “Microorganism modified for the production of 1,3-propanediol” (INSTITUT NATIONAL DES SCIENCES APPLIQUÉES, priority 2012, dated 2017), this text covers Km for eight proteins.

Numbering of substitutions follows the chain as printed. Numbers in names are those of the source.

Substrate in series [1]: O=C(O)[C@@H](O)CCO
The series is described as follows: purified protein, by the assay type. It is filed as biochemical, Escherichia coli. The following applies: other: 37° C., pH 7, 0.06 mM DCIP. How it is done: (§1) Activity of the membrane-associated DHB dehydrogenase (Ec-LldD) was assayed by following the DHB-dependent reduction of 2,6-dichloroindophenol (DCIP). (L)-2,4-dihydroxybutyrate+DCIPox→2-oxo-4-hydroxybutyrate+DCIPred Reaction scheme 2:
(§2) Reactions were started by adding 20 mM (L)-2,4-dihydroxybutyrate (Rhodia).
(§3) Site-directed mutagenesis of the E. coli lldD gene was carried out using the oligonucleotide pairs listed in Table 5 and the pET28-Ec-lldD plasmid as the template.

Substrate in series [2]: C[C@H](O)C(=O)O
The experiment in a line: purified protein, by the assay type. It is filed as biochemical, Escherichia coli. The following applies: other: 37° C., pH 7, DCIP reduction. How it is done: as §1, §2, §3

Substrate in series [3]: O=C(O)C(=O)CCO
The experiment in a line: OHB decarboxylase / pyruvate decarboxylase kinetics, Zm-Pdc wild type. Format: biochemical, Zymomonas mobilis. As to conditions: other: 37° C., pH 7, coupled to E. coli YqhD/NADPH. The source says: (§4) Genomic DNAs of S. cerevisiae BY4741, and Z. mobilis (Lindner) Kluyver and van Niel (ATCC® 31821) were used as the template. […] Ligation products were transformed into competent E. coli DH5α cells (NEB). […] The corresponding protein sequences are represented by SEQ No. 208 and SEQ ID No. 208 128 respectively.
(§5) The plasmids were used to transform E. coli BL21 (DE3) star cells and the enzymes carrying an N-terminal hexa-His tag were expressed and purified as described in Example 1. Decarboxylase activity on 2-oxo-4-hydroxybutyrate (OHB), pyruvate (Sigma), and 4-methyl-2-oxovaleric acid (Sigma) was quantified.
(§6) OHB decarboxylase activity was assayed by coupling the decarboxylase activity to the NADPH-dependent reduction of the released 3-hydroxypropanal by purified aldehyde reductase, YqhD, from E. coli. The decarboxylation of pyruvate was coupled to the NADH-dependent reduction of acetaldehyde catalysed by yeast alcohol dehydrogenase. Branched-chain alpha-ketoacid decarboxylase activity was measured on 4-methyl-2-oxovaleric acid by coupling to the NADH-dependent reduction of 3-methylbutanal catalysed by horse liver alcohol dehydrogenase. […] Reactions were started by adding 20 mM 2-oxo-4-hydroxybutyrate (OHB), 10 mM 4-methyl-2-oxovaleric acid (MOV), or 5 mM pyruvate.

Substrate in series [4]: CC(=O)C(=O)O
The series is described as above. As to conditions: other: 37° C., pH 7, coupled to yeast alcohol dehydrogenase/NADH. Format: biochemical, Zymomonas mobilis.
Text: as §4, §5, §6

Substrate in series [5]: O=C(O)C(=O)CCO
The series is described as follows: OHB decarboxylase / pyruvate decarboxylase kinetics, Zm-Pdc W392L. It is filed as biochemical, Zymomonas mobilis. The following applies: other: 37° C., pH 7, coupled to E. coli YqhD/NADPH. How it is done:
as §6
(§7) Site-directed mutagenesis of the L. lactis kdcA and the Z. mobilis Pdc genes was carried out using the oligonucleotide pairs listed in Table 9 and the pET28-Ll-kdcA and pET28-Zm-Pdc plasmids, respectively, as the template.
(§8) Mutant enzymes were expressed, purified and tested for OHB decarboxylase, pyruvate decarboxylase and MOV decarboxylase activity as described in Example 4.

Substrate in series [6]: O=C(O)C(=O)CCO
The series is described as follows: OHB decarboxylase / pyruvate decarboxylase kinetics, Zm-Pdc G413N. Format: biochemical, Zymomonas mobilis. The following applies: other: 37° C., pH 7, coupled to E. coli YqhD/NADPH. On the procedure:
as §6, §7, §8

Substrate in series [7]: O=C(O)[C@@H](O)CCO
The series is described as follows: cells, lysate or membranes named. Format: biochemical, Bacillus subtilis. The following applies: other: 37° C., pH 8, 10 mM NAD. How it is done:
(§9) Site-directed mutagenesis of the E. coli mdh and the B. subtilis mdh genes were carried out using the oligonucleotide pairs listed in Table 3 and the pET28-Ec-mdh and the pET28-Bs-mdh plasmids as the templates. Point mutations to change the amino acid sequence were introduced by PCR (Phusion 1U, HF buffer 20% (v/v), dNTPs 0.2 mM, direct and reverse primers 0.04 μM each, template plasmid 50 ng, water) using the oligonucleotide pairs listed in Table 3. Mutated genes contained a new restriction site listed in Table 3 (introduced using silent mutations) in addition to the functional mutation to facilitate identification of mutated clones. The PCR products were digested by DpnI at 37° C. for 1 h to remove template DNA, and transformed into competent E. coli DH5-alpha cells (NEB). The mutated plasmids were identified by restriction site analysis and verified to carry the desired mutations by DNA sequencing.
(§10) Mutant enzymes were expressed, purified and tested for DHB dehydrogenase activity as described in Example 1.

Substrate in series [8]: O=C(O)C[C@H](O)C(=O)O
The series is described as follows: cells, lysate or membranes named. The following applies: other: 37° C., pH 8, NAD. It is filed as biochemical, Bacillus subtilis. How it is done:
as §9, §10

Substrate in series [9]: O=C(O)C(=O)CCO
The series is described as follows: OHB decarboxylase / branched-chain alpha-ketoacid decarboxylase kinetics, Ll-KdcA wild type. The following applies: other: 37° C., pH 7, coupled to E. coli YqhD/NADPH. Format: biochemical, Lactococcus lactis B1157-NIZO.
Text: (§11) The branched-chain alpha-ketoacid decarboxylase encoding gene Ll-kdcA from L. lactis B1157-NIZO was codon-optimized for expression in E. coli. […] The resulting pET28-Ll-kdcA plasmid was shown by DNA sequencing to have the correct sequence.
as §5, §6

Substrate in series [10]: CC(C)CC(=O)C(=O)O
The description is as above. It is filed as biochemical, Lactococcus lactis B1157-NIZO. The following applies: other: 37° C., pH 7, coupled to horse liver alcohol dehydrogenase/NADH.
Text: as §11, §5, §6

Substrate in series [11]: O=C(O)C(=O)CCO
The series is described as follows: OHB decarboxylase / MOV decarboxylase kinetics, Ll-KdcA V461I. Format: biochemical, Lactococcus lactis. As to conditions: other: 37° C., pH 7, coupled to E. coli YqhD/NADPH. How it is done: as §6, §7, §8

Substrate in series [12]: CC(C)CC(=O)C(=O)O
Described as above. Format: biochemical, Lactococcus lactis. The following applies: other: 37° C., pH 7, coupled to horse liver alcohol dehydrogenase/NADH. How it is done: as §6, §7, §8

Substrate in series [13]: O=C(O)C(=O)CCO
The series is described as follows: OHB decarboxylase / MOV decarboxylase kinetics, Ll-KdcA G402S. It is filed as biochemical, Lactococcus lactis. As to conditions: other: 37° C., pH 7, coupled to E. coli YqhD/NADPH. On the procedure: as §6, §7, §8

Substrate in series [14]: CC(C)CC(=O)C(=O)O
Described as above. It is filed as biochemical, Lactococcus lactis. The following applies: other: 37° C., pH 7, coupled to horse liver alcohol dehydrogenase/NADH. How it is done:
as §6, §7, §8

B1: Escherichia coli (L)-lactate dehydrogenase Ec-LldD variant V108C, SEQ ID No. 174 (Escherichia coli K-12; V108C) (protein)
chain: MIISAASDYRAAAQRILPPFLFHYMDGGAYSEYTLRRNVEDLSEVALRQRILKNMSDLSLETTLFNEKLSMPVALAPVGLCGMYARRGEVQAAKAADAHGIPFTLSTCSVCPIEEVAPAIKRPMWFQLYVLRDRGFMRNALERAKAAGCSTLVFTVDMPTPGARYRDAHSGMSGPNAAMRRYLQAVTHPQWAWDVGLNGRPHDLGNISAYLGKPTGLEDYIGWLGNNFDPSISWKDLEWIRDFWDGPMVIKGILDPEDARDAVRFGADGIVVSNHGGRQLDGVLSSARALPAIADAVKGDIAILADSGIRNGLDVVRMIALGADTVLLGRAFLYALATAGQAGVANLLNLIEKEMKVAMTLTGAKSISEITQDSLVQGLGKELPAALAPMAKGNAA
notes: DCIP assay
One may read the Km as the substrate concentration at which the rate is half of its maximum. Regarding B1, the Km in series [1] was determined as 850 µM; in series [2] it was 420 µM.

B2: Zymomonas mobilis pyruvate decarboxylase Zm-Pdc, wild type, SEQ ID No. 128 (Zymomonas mobilis subsp. mobilis ZM4 = ATCC 31821) (protein)
chain: MSYTVGTYLAERLVQIGLKHHFAVAGDYNLVLLDNLLLNKNMEQVYCCNELNCGFSAEGYARAKGAAAAVVTYSVGALSAFDAIGGAYAENLPVILISGAPNNNDHAAGHVLHHALGKTDYHYQLEMAKNITAAAEAIYTPEEAPAKIDHVIKTALREKKPVYLEIACNIASMPCAAPGPASALFNDEASDEASLNAAVEETLKFIANRDKVAVLVGSKLRAAGAEEAAVKFADALGGAVATMAAAKSFFPEENPHYIGTSWGEVSYPGVEKTMKEADAVIALAPVFNDYSTTGWTDIPDPKKLVLAEPRSVVVNGIRFPSVHLKDYLTRLAQKVSKKTGALDFFKSLNAGELKKAAPADPSAPLVNAEIARQVEALLTPNTTVIAETGDSWFNAQRMKLPNGARVEYEMQWGHIGWSVPAAFGYAVGAPERRNILMVGDGSFQLTAQEVAQMVRLKLPVIIFLINNYGYTIEVMIHDGPYNNIKNWDYAGLMEVFNGNGGYDSGAGKGLKAKTGGELAEAIKVALANTDGPTLIECFIGREDCTEELVKWGKRVAAANSRKPVNKLL
notes: hexa-His (N); made in house; host or cells: E. coli BL21 (DE3) star
Turning to B2, the Km stood at 1500 µM in series [3] and 2500 µM in series [4].

B3: Zymomonas mobilis pyruvate decarboxylase Zm-Pdc variant W392L, SEQ ID No. 192 (Zymomonas mobilis subsp. mobilis ZM4 = ATCC 31821; W392L) (protein)
chain: B2 chain with W392L
In the case of B3, the Km in series [5] stood at 3700 µM.

B4: Zymomonas mobilis pyruvate decarboxylase Zm-Pdc variant G413N, SEQ ID No. 194 (Zymomonas mobilis subsp. mobilis ZM4 = ATCC 31821; G413N) (protein)
chain: B2 chain with G413N
As for B4, the Km in series [6] stood at 1400 µM.

B5: Bacillus subtilis malate dehydrogenase Bs-Mdh variant R87C, SEQ ID No. 154 (Bacillus subtilis subsp. subtilis str. 168; R87C) (protein)
chain: MGNTRKKVSVIGAGFTGATTAFLIAQKELADVVLVDIPQLENPTKGKALDMLEASPVQGFDAKITGTSNYEDTAGSDIVVITAGIACKPGMSRDDLVSTNEKIMRSVTQEIVKYSPDSIIVVLTNPVDAMTYAVYKESGFPKERVIGQSGVLDTARFRTFVAEELNLSVKDVTGFVLGGHGDDMVPLVRYSYAGGIPLETLIPKERIDAIVERTRKGGGEIVNLLGNGSAYYAPAASLTEMVEAILKDQRRVLPTIAYLEGEYGYEGIYLGVPTIVGGNGLEQIIELELTDYERAQLNKSVESVKNVMKVLS
In the case of B5, the Km stood at 5400 µM in [7] and 6800 µM in [8].

B6: Lactococcus lactis branched-chain alpha-ketoacid decarboxylase Ll-KdcA, wild type, SEQ ID No. 130 (Lactococcus lactis) (protein)
chain: MYTVGDYLLDRLHELGIEEIFGVPGDYNLQFLDQIISREDMKWIGNANELNASYMADGYARTKKAAAFLTTFGVGELSAINGLAGSYAENLPVVEIVGSPTSKVQNDGKFVHHTLADGDFKHFMKMHEPVTAARTLLTAENATYEIDRVLSQLLKERKPVYINLPVDVAAAKAEKPALSLEKESSTTNTTEQVILSKIEESLKNAQKPVVIAGHEVISFGLEKTVTQFVSETKLPITTLNFGKSAVDESLPSFLGIYNGKLSEISLKNFVESADFILMLGVKLTDSSTGAFTHHLDENKMISLNIDEGIIFNKVVEDFDFRAVVSSLSELKGIEYEGQYIDKQYEEFIPSSAPLSQDRLWQAVESLTQSNETIVAEQGTSFFGASTIFLKSNSRFIGQPLWGSIGYTFPAALGSQIADKESRHLLFIGDGSLQLTVQELGLSIREKLNPICFIINNDGYTVEREIHGPTQSYNDIPMWNYSKLPETFGATEDRVVSKIVRTENEFVSVMKEAQADVNRMYWIELVLEKEDAPKLLKKMGKLFAEQNK
Regarding B6, the Km in [9] turned out to be 4000 µM; in [10], 150 µM.

B7: Lactococcus lactis branched chain 2-oxoacid decarboxylase Ll-KdcA variant V461I, SEQ ID No. 198 (Lactococcus lactis; V461I) (protein)
chain: B6 chain with V461I
For the protein B7, the Km in series [11] was 2800 µM; in [12] it was 150 µM.

B8: Lactococcus lactis branched chain 2-oxoacid decarboxylase Ll-KdcA variant G402S, SEQ ID No. 196 (Lactococcus lactis; G402S) (protein)
chain: B6 chain with G402S
With B8, the Km in series [13] and in [14] was 1500 µM each time.
